# Assay results from PMC11584650, “An inhibitory segment within G-patch activators tunes Prp43-ATPase activity during ribosome assembly” (Nature Communications, 2024).
# Substrate: Nc1ncnc2c1ncn2[C@@H]1O[C@H](COP(=O)(O)OP(=O)(O)OP(=O)(O)O)[C@@H](O)[C@H]1O
# Experiment: pyruvate kinase/lactate dehydrogenase coupled NADH assay, Michaelis-Menten fit
# Format: biochemical, Saccharomyces cerevisiae
# Conditions: no RNA, 20 mM MgCl2, 50 mM Hepes pH 7.5, 200 mM KCl, room temperature, ATP up to 2.5 mM
# Source text: pyruvate kinase/lactate dehydrogenase coupled NADH assay, Michaelis-Menten fit on Prp43 | We obtained kinetic parameters for the ATPase activities of Prp43, Prp43:Tma23^M and Ppr43:Pxr1^M complexes
protein,measurement,value
"Prp43 (Saccharomyces cerevisiae S288C) (protein, full-length His6-tagged Prp43, expressed in E. coli BL21(DE3)*, Ni-NTA and size exclusion) MGSKRRFSSEHPDPVETSIPEQAAEIAEELSKQHPLPSEEPLVHHDAGEFKGLQRHHTSAEEAQKLEDGKINPFTGREFTPKYVDILKIRRELPVHAQRDEFLKLYQNNQIMVFVGETGSGKTTQIPQFVLFDEMPHLENTQVACTQPRRVAAMSVAQRVAEEMDVKLGEEVGYSIRFENKTSNKTILKYMTDGMLLREAMEDHDLSRYSCIILDEAHERTLATDILMGLLKQVVKRRPDLKIIIMSATLDAEKFQRYFNDAPLLAVPGRTYPVELYYTPEFQRDYLDSAIRTVLQIHATEEAGDILLFLTGEDEIEDAVRKISLEGDQLVREEGCGPLSVYPLYGSLPPHQQQRIFEPAPESHNGRPGRKVVISTNIAETSLTIDGIVYVVDPGFSKQKVYNPRIRVESLLVSPISKASAQQRAGRAGRTRPGKCFRLYTEEAFQKELIEQSYPEILRSNLSSTVLELKKLGIDDLVHFDFMDPPAPETMMRALEELNYLACLDDEGNLTPLGRLASQFPLDPMLAVMLIGSFEFQCSQEILTIVAMLSVPNVFIRPTKDKKRADDAKNIFAHPDGDHITLLNVYHAFKSDEAYEYGIHKWCRDHYLNYRSLSAADNIRSQLERLMNRYNLELNTTDYESPKYFDNIRKALASGFFMQVAKKRSGAKGYITVKDNQDVLIHPSTVLGHDAEWVIYNEFVLTSKNYIRTVTSVRPEWLIEIAPAYYDLSNFQKGDVKLSLERIKEKVDRLNELKQGKNKKKSKHSKK",Km,19.04 ± 7.11 µM
same,kcat,0.0318 ± 0.0005 s⁻¹
